Source: the DeepSol protein solubility set

Assay: soluble on expression in E. coli; label from the status in PepcDB or PDB records

Sequence | soluble on expression in E. coli
MYGTEQVISGTIIAGPELDPIEGYICVKNGIITEIGEEHTYSANIIAPCFVNAHTHLGDSVCKDPPLGKTSGFRVQKDLDSLVKPPDGLKHRILRDTSYKTLIQYIRKSLLDMIETGTCAFADFREGGVVGLAALNKALEGLNLHSLIFGRPTEPQLPLEVVLAEVRRVLSHSDGLGMSGANDLDMELLQEMTTCTRDRKKLFAIHAGEKNRSDIEKALSLEPDLLIHLTHATKKDLEDVAQTGAPVVVCPRSNFVTGSGMAPIAEMLEAEIRVAAGTDNVMLNSVNMFAEMEFMSKVFSIEDRQVFKICTLNGSFVMGPDSTGSIEKGNKANLMILNGSSNNLAGIKDPISGITKRARPDDILAVLHS | soluble
SLENVLASHSKMQGALEKVQIELGRRDSEIAGLKKERDLNQQRVQKLEAEVDQWQARMLVMEDQHNSEIESLQKALGVAREDNRKLAMSLEQALQTNNHLQTKLDHIQEQLESKELERQNLETFKDRMTEESKVEAELHAERIEALRKQFQTERETTKKVAQREVAELKKALDEANFRSVEVSRTNRELRQKLAELEKILESNKEKIKNQKTQIKLHLSAKANNAQNIERMKVVWETSSHFLDTL | soluble
MGSDKIHHHHHHKPGEVWPDDKGVHINAHGGGILRVGDTYYWFGEHKTEGSAGNLAQVGVHCYSSKDLYNWKDEGIALSVVPDDTTSHIVKGCVLERPKVIYNKKNDQYVMWFHLEPRGAGYSGALSGVAVSKNVAGPYSFVNAFRPNAGFWPVNVQELHKQPCTFSADLRFSGGELPAHPDSLNLLGRDQISGQMARDMNLFVDDDGIAYHIYSSEENSTLHISQLTDDYTSYSGKYARFFPGRFMEAPALFKQKGKYYLIMSGCTGWAPNAGRSAVASSIWGPWKELENPFRGENSEVSFYSQSTYVLPVPGHADRFIYMGDRWTPENAIDGRYIWLPIRFEGEQPVIEWRSEWSY | not soluble
MAVQYKSTTTEHKFKHLSVYERGQIAALLKEGKSQRYIANKLGRSPSTISREIKRGTTMQMRTDLSTYKVYFPETGQAVYEKNRMNCGAKRKLAQVEDFLKFAEDKILREKWSPDAVVGLCRRDPKWQNSTIVCTKTLYNYIDLGLIKVRNIDLNLKLRLKS | soluble
MPKHCSHLIIIPDGKMAAIPFEALIEKRPKHDTSSYAQMGFMIKKYATSYTYTASLYENTHEAAKVKKVLLFAPVDFSASSDLNALPGTLAEVDTLTSLCTNTAQADVYTYTAASKAVLVSDSLSGYSIIHLATHGLVDEEQPELSCIYTSGTSEENDRIYAGDMYNMHLNAALVSLSACQTGLGKIEKGEGMIGLSRALFYAGADNIMVSLWKVSDLSTQVYMQYFYSIYLSENFTTFAEAARISKIKLLNSETFNSPYYWAAFILIGKLEHHHHHH | not soluble
MCLDQVMEGSATVHMAAPPDKIWTLIADVRNTGRFSPETFEAEWLDGATGPALGARFRGHVRRNGIGPVYWTVCEPGREFGFAVLLGDRPVNNWHYRLTPTADGTEVTESFRLPPSVLTTVYYRVFGGWLRQRRNIRDMTKTLQRIKDLVEAG | soluble
MSLKIMGFYSQVILPRLLDWSLSDPTLATYRQELLTDVTGEVLEIGFGTGLNLAYYPSHIHKITTVDVNPGMNTIAQKRIDDSGIKVQQLLLSGENLPMADNTFDSVVSTWTLCSIANVEQALQEVYRVLKPGGKFFFLEHGLSNKPNVQVWQNRLTPIQKVLADGCHLNRNIQQLVEQSFDHVELKRFTPENFPDLMAHFYKGCATKKSIEGHHHHHH | not soluble
SDLFTDGDIFQDIVDAACKRRVPVYIILDEGGVKYFLEMCQGLELADFRIRNIRVRSVTGIGFYMPMGKIKGTLSSKFLMVDGDKVATGSFSFTWSSSYVDRNLLLLLTGQNMEPFDIEFRELYAISEEVNLHQHLGLAGRIGLNYSSTVARKLINPKYALVAGTRRPPGEMMRWAARQQREAGGNVEGQEEGSGGGESARRLESFLNDLVTVEQILPTVEPISPRLQRPTNGRPVSHAHTDAKHRSREALPQNGKGEAANGEATPAKEGKRFSSRLFSRRVKRPAVPSSMASSPSTETFADVEFPLGKRHNEGSNANISGKGITKASNCVIS | soluble
QLVIERVSLPNPGKEKMTQALLTYVRRQGLSSLNWTPAAESLLERIRCAVDWLPEQAWPMFDEASLLDSLDEWLEPYMTSVA | not soluble
LRLHQWLRNHQPDEPPPDSYGLWGEVFDNIYHLQRRNQRARGRLQAVIDRIQESTAALRDAVIMLDSDGNLEWWNLAAENLLGLKTPQDGGQPVSNLIRHPRFKEYFDQEDYREPLEIPSPINERLRLQFHITLYGNREHLMLVRDVTRVHQLEQMRKDFVANVSHELRTPLTVIAGYLETLLDNVEDVNPRWLRALQQMQQQAGRMQNLLNDLLLLAKLEATDYPGDNKPVAVDALLASIRNDAQALSAGRNHRISLDAAPAVQLKGSEAELRSAFSNLVFNAVKYTPDEGEIRIRWWADEQGAHLSVQDTGIGVDPKHLPRLTERFYRVDSSRASNTGGTGLGLAIVKHVLIRHRARLEISSVPGKGSTFTCHFAPAQVAEAERKAPK | not soluble
MSLNIAKIVREAREQSRLTTLDFATGIFDEFIQLHGDRSFRDDGAVVGGIGWLGDQAVTVVGIQKGKSLQDNLKRNFGQPHPEGYRKALRLMKQAEKFGRPVVTFINTAGAYPGVGAEERGQGEAIARNLMEMSDLKVPIIAIIIGEGGSGGALALAVADRVWMLENSIYAILSPEGFASILWKDGTRAMEAAELMKITSHELLEMDVVDKVISEVGLSSKELIKSVKKELQTELARLSQKPLEELLEERYQRFRKYEGHHHHHH | soluble
MGSDKIHHHHHHENLYFQGDSFKTKSGKELTITFIKHGSLMLTYDNHSIQVDPVSEYADYTTFPKADIILITHEHGDHLDPKAIQAVEKSDTEIIANENSQKKLGKGKVLKNGDTDTSISYMKIEAVPAYNTTPGRDKYHPRHRDNGYILTFDGLRVYIAGDTEDIPEMKDLKDIDIAFLPVNQPYTMTVSQAAKAARMFSPKILYPYHYGDTKIGELKDALKDSGIDVRIRELQ | soluble
MSLKLARINLSRDDIHKRLGGGIPYGSIILVEGEESTGKSIIAQRLAYGFLQTAHSVTYTSTQLTTLEFVKQMMSLNYNINKKLLSGTLLYIPVYPLISDNTQKDDFIKKIMETRAFYEKDIVIFDSLSSLIVNDASDIKVNDLMAFFKRIASMNKVIIYTINPKELPESILTLLRSSATMVLKTEIYTFGGNIKNLVKIEKYNLAQGPFQKLMVFRVEPKLGIAVEISSVAEGHHHHHH | soluble
MRKIIHVDMDCFFAAVEMRDNPALRDIPIAIGGSRERRGVISTANYPARKFGVRSAMPTGMALKLCPHLTLLPGRFDAYKEASNHIREIFSRYTSRIEPLSLDEAYLDVTDSVHCHGSATLIAQEIRQTIFNELQLTASAGVAPVKFLAKIASDMNKPNGQFVITPAEVPAFLQTLPLAKIPGVGKVSAAKLEAMGLRTCGDVQKCDLVMLLKRFGKFGRILWERSQGIDERDVNSERLRKSVGVERTMAEDIHHWSECEAIIERLYPELERRLAKVKPDLLIARQGVKLKFDDFQQTTQEHVWPRLNKADLIATARKTWDERRGGRGVRLVGLHVTLLDPQMERQLVLGL | soluble
MSLNCERVWLNVTPATLRSDLADYGLLEPHALGVHEGRIHALVPMQDLKGPYPAHWQDMKGKLVTPGLIDCHTHLIFAGSRAEEFELRQKGVPYAEIARKGGGIISTVRATRAASEDQLFELALPRVKSLIREGVTTVEIKSGYGLTLEDELKMLRVARRLGEALPIRVKTTLLAAHAVPPEYRDDPDSWVETICQEIIPAAAEAGLADAVDVFCEHIGFSLAQTEQVYLAADQYGLAVKGHMDQLSNLGGSTLAANFGALSVDHLEYLDPEGIQALAHRGVVATLLPTAFYFLKETKLPPVVALRKAGVPMAVSSDINPGTAPIVSLRMAMNMACTLFGLTPVEAMAGVTRHAARALGEQEQLGQLRVGMLADFLVWNCGHPAELSYLIGVDQLVSRVVNGEETLHGEGHHHHHH | soluble
MQKFIIHKGIACPLEYANIDTDQIIPKQFLLAVSKQGFGKHLFHDLRYLDDKESVLNMDFNLNKKEYQNSSILVSFENFGSGSSREHAPWALVDYGIRAIIAPSFADIFKNNALGNGLLTIELAKDEVLEIVDELKKSQDKNIEISLLEKRVFFKDKIFSFDLDDFHRICLLEGLDNIALTLKHEAQIKAYEKNSKSFLV | soluble
